Assay results published in US20240400659A1 (BIOATLA, published 2024).
Changes are numbered by the printed parent chain. Numbers in names are those of the source.

T1: mouse ApoE (mouse, UniProt P08226 19-311, limits assumed)
T1 construct: also called msApoE; ms ApoE
T1 sequence (looked up): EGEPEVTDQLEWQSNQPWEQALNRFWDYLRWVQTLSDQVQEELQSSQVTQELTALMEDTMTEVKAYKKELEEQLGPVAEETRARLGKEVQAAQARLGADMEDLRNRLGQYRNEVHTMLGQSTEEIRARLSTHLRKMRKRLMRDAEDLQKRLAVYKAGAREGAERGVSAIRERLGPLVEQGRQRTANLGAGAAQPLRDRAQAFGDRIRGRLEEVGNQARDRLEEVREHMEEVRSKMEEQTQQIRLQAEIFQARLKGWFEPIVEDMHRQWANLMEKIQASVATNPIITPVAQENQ

B1: Anti-ApoE wildtype antibody BAP191.01-WT (antibody, V domains shown)
VH: QIQLVQSGPELKKPGETVKISCKASGYTFTTAGMQWVQKMPGKGFKWIGWINTHSGEPKYAEDFKGRFAFSLETSASTAYLQISNLKNEDTATYFCARMGGYAMDYWGQGTSVTVSS
VL: DIKLTQSPSSMYASLGERVTITCKASEDINSYLSWFQQKPGKSPKTLIYRANRLVDGVPSRFSGSGSGQDYSLTISSLEYEDMGIYYCLQYDEFPLTFGAGTKLELT
notes: also called benchmark; parent
B2: BAP191.01-CPE-LC-P095D (antibody, V domains shown)
VH: B1 VH
VL: B1 VL with P95D
B3: BAP191.01-CPE-HC-M104E (antibody, V domains shown)
VH: B1 VH with M104E
VL: B1 VL
B4: BAP191.01-CPE-HC-M099E (antibody, V domains shown)
VH: B1 VH with M99E
VL: B1 VL
B5: BAP191.01-CPE-LC-Y091D (antibody, V domains shown)
VH: B1 VH
VL: B1 VL with Y91D
B6: BAP191.01-CPE-HC-R098E (antibody, V domains shown)
VH: B1 VH with R98E
VL: B1 VL
B7: BAP191-01-CPE-HC-M034D (antibody, V domains shown)
VH: B1 VH with M34D
VL: B1 VL
B8: BAP191.01-CPE-HC-I051D (antibody, V domains shown)
VH: B1 VH with I51D
VL: B1 VL
notes: also called BAP191.01-CPE-HC-1051D

The binders below were run against T2, Apolipoprotein E3 (human, UniProt P02649 19-317) (assay: pH affinity ELISA, coated hApoE3).
T2 construct: also called ApoE3; hApoE3
T2 sequence (P02649 19-317 limits assumed): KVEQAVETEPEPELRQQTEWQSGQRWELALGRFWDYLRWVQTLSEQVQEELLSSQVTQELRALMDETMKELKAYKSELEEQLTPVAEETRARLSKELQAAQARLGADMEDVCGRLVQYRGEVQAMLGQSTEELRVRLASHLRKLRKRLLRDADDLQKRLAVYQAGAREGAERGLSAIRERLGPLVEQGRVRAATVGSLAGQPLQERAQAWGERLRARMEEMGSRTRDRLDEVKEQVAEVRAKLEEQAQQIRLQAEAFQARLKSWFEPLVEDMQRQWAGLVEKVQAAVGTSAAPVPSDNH

Ratio pH 7.4/6.0 (EC50) [ratio] | Binder
0.73 | B1
1.27 | B2
2.95 | B3

Each binder was assayed against T3, Apolipoprotein E4 (human, UniProt P02649 19-317) (assay: pH affinity ELISA, coated hApoE4).
T3 construct: also called ApoE4; hApoE4
T3 sequence (P02649 19-317 C130R limits assumed): as the sequence (P02649 19-317 limits assumed) above, with C112R counted along it

Ratio pH 7.4/6.0 (EC50) [ratio] | Binder
0.46 | B1
2350 | B4
1.79 | B5
1.65 | B2
4.33 | B6
3.01 | B7
3.07 | B8
18400 | B3

What follows are binders tested against T1, mouse ApoE (assay: pH affinity ELISA, coated mouse ApoE).

Ratio pH 7.4/6.0 (EC50) [ratio] | Binder
0.96 | B1
2.75 | B4
1.67 | B2
2.53 | B6
3.71 | B7
3.76 | B8
2.25 | B3

These binders were tested against T2, Apolipoprotein E3 (assay: pH affinity ELISA, coated hApoE3, pH 6.0).

EC50 [µg/mL] | Binder
0.136 | B1
0.245 | B2
3.13 | B3

Each binder was assayed against T2, Apolipoprotein E3 (assay: pH affinity ELISA, coated hApoE3, pH 7.4).

EC50 [µg/mL] | Binder
0.0991 | B1
0.311 | B2
9.25 | B3

Each binder was assayed against T3, Apolipoprotein E4 (assay: pH affinity ELISA, coated hApoE4, pH 6.0).

EC50 [µg/mL] | Binder
0.0797 | B1
2.93 | B4
0.084 | B5
0.0893 | B2
4.36 | B6
0.685 | B7
1.54 | B8
4.2 | B3

What follows are binders tested against T3, Apolipoprotein E4 (assay: pH affinity ELISA, coated hApoE4, pH 7.4).

EC50 [µg/mL] | Binder
0.0368 | B1
6890 | B4
0.15 | B5
0.147 | B2
18.9 | B6
2.06 | B7
4.75 | B8
68700 | B3

These binders were tested against T1, mouse ApoE (assay: pH affinity ELISA, coated mouse ApoE, pH 6.0).

EC50 [µg/mL] | Binder
0.0926 | B1
0.573 | B4
0.146 | B2
0.163 | B6
0.105 | B7
0.104 | B8
1.09 | B3

Each binder was assayed against T1, mouse ApoE (assay: pH affinity ELISA, coated mouse ApoE, pH 7.4).

EC50 [µg/mL] | Binder
0.089 | B1
1.58 | B4
0.244 | B2
0.413 | B6
0.389 | B7
0.39 | B8
2.45 | B3
